Laboratory results as given in patent US20190263889A1.
“And” between values parts separate entries of the source, which are not always exact repeats. Identical values can stand only once.

Experiments:
[1] = target: CTLA-4Fc mutant protein M1 (human (murine residues substituted)); assay: ELISA; binder 10 ng/ml on coated target
[2] = target: CTLA-4Fc mutant protein M10 (human (murine residues substituted)); assay: ELISA; binder 10 ng/ml on coated target
[3] = target: CTLA-4Fc mutant protein M11 (human (murine residues substituted)); assay: ELISA; binder 10 ng/ml on coated target
CTLA-4Fc mutant protein M11 (human (murine residues substituted)), sequence (chain, as listed by the source mutant): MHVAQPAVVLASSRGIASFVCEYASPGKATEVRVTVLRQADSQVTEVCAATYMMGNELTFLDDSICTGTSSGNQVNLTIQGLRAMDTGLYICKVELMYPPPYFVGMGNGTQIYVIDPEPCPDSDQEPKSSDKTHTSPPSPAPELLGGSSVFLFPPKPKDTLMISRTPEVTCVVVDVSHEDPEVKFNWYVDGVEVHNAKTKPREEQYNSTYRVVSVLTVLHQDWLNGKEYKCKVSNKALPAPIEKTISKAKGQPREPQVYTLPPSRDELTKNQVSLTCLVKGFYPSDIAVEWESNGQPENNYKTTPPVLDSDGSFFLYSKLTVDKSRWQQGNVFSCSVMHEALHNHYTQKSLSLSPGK

[4] = target: CTLA-4Fc mutant protein M2 (human (murine residues substituted)); assay: ELISA; binder 10 ng/ml on coated target
CTLA-4Fc mutant protein M2 (human (murine residues substituted)), sequence (chain, as listed by the source mutant): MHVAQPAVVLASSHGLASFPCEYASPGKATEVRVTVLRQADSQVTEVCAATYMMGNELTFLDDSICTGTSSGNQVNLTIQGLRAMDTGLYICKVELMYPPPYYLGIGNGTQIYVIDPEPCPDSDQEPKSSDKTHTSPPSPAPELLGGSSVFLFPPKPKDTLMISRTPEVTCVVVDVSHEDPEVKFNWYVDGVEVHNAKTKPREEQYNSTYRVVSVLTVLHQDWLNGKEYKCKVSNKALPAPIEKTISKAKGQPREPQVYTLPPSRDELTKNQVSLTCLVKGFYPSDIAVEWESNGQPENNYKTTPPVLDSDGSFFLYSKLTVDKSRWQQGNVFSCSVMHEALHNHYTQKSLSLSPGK

[5] = target: CTLA-4Fc mutant protein M3 (human (murine residues substituted)); assay: ELISA; binder 10 ng/ml on coated target
CTLA-4Fc mutant protein M3 (human (murine residues substituted)), sequence (chain, as listed by the source mutant): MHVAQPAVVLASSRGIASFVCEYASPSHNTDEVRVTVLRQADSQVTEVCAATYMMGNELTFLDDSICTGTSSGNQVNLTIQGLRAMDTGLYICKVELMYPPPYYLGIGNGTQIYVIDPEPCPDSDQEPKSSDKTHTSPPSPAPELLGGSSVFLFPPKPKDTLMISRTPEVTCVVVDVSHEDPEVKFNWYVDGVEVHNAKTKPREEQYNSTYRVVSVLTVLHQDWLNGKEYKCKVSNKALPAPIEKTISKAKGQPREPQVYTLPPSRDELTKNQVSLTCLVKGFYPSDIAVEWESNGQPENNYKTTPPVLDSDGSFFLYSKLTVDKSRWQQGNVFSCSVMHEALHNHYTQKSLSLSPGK

[6] = target: CTLA-4Fc mutant protein M4 (human (murine residues substituted)); assay: ELISA; binder 10 ng/ml on coated target
CTLA-4Fc mutant protein M4 (human (murine residues substituted)), sequence (chain, as listed by the source mutant): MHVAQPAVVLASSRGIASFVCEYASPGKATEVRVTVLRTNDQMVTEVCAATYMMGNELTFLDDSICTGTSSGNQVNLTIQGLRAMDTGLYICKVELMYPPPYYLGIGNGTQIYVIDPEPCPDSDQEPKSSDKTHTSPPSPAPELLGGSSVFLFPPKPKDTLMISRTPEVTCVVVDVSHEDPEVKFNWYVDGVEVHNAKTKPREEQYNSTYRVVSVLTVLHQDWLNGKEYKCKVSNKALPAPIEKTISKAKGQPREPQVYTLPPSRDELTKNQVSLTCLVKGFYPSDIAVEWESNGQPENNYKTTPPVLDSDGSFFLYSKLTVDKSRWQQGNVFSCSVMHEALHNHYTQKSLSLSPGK

[7] = target: CTLA-4Fc mutant protein M5 (human (murine residues substituted)); assay: ELISA; binder 10 ng/ml on coated target
CTLA-4Fc mutant protein M5 (human (murine residues substituted)), sequence (chain, as listed by the source mutant): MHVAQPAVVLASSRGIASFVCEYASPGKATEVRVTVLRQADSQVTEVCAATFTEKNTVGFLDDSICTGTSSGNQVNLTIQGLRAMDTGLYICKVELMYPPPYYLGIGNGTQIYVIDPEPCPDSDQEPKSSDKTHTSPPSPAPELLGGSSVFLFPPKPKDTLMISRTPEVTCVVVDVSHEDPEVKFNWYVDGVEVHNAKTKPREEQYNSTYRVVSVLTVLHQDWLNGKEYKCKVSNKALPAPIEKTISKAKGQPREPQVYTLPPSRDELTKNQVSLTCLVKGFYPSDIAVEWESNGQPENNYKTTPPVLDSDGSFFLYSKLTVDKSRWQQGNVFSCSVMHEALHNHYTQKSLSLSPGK

[8] = target: CTLA-4Fc mutant protein M6 (human (murine residues substituted)); assay: ELISA; binder 10 ng/ml on coated target
CTLA-4Fc mutant protein M6 (human (murine residues substituted)), sequence (chain, as listed by the source mutant): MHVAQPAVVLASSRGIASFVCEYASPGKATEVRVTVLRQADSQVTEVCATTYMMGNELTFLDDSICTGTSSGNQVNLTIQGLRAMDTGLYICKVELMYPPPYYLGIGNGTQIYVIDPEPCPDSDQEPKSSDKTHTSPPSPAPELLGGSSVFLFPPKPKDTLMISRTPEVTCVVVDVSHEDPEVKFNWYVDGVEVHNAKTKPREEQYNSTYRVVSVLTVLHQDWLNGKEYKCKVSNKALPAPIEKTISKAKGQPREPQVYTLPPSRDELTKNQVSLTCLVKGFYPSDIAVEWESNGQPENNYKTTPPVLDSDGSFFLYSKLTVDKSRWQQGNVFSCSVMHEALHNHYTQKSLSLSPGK

[9] = target: CTLA-4Fc mutant protein M7 (human (murine residues substituted)); assay: ELISA; binder 10 ng/ml on coated target
CTLA-4Fc mutant protein M7 (human (murine residues substituted)), sequence (chain, as listed by the source mutant): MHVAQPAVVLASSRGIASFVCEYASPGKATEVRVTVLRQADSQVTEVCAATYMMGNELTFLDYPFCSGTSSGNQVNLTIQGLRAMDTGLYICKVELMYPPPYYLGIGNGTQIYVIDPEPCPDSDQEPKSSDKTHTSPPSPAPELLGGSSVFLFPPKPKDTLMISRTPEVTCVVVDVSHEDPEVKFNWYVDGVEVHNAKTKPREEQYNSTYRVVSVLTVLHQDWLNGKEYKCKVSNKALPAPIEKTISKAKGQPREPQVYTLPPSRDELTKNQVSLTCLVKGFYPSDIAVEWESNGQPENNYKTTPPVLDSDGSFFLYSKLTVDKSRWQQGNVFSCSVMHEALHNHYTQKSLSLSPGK

[10] = target: CTLA-4Fc mutant protein M8 (human (murine residues substituted)); assay: ELISA; binder 10 ng/ml on coated target
CTLA-4Fc mutant protein M8 (human (murine residues substituted)), sequence (chain, as listed by the source mutant): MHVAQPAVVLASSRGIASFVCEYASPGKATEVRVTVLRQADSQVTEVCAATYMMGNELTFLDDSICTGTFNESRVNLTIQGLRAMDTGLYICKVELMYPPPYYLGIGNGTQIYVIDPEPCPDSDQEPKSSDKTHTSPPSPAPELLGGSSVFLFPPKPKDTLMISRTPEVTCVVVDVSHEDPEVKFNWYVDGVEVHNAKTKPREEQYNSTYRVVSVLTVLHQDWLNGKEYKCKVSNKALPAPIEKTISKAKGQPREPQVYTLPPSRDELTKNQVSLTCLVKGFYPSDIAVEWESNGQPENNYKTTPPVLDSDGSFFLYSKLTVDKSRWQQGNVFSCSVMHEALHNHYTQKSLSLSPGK

[11] = target: CTLA-4Fc mutant protein M9 (human (murine residues substituted)); assay: ELISA; binder 10 ng/ml on coated target
CTLA-4Fc mutant protein M9 (human (murine residues substituted)), sequence (chain, as listed by the source mutant): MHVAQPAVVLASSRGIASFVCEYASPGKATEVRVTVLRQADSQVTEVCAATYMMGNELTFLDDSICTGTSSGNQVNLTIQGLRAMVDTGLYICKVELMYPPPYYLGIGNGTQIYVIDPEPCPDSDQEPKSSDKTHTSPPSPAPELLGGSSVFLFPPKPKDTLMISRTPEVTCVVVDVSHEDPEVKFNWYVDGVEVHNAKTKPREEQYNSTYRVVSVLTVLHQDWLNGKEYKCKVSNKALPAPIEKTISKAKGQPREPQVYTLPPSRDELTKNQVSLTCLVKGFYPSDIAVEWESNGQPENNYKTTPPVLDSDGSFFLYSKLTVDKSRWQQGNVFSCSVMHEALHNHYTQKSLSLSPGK

[12] = target: wild type human CTLA-4Fc fusion protein (abatacept) (human); assay: ELISA; binder 10 ng/ml on coated target
wild type human CTLA-4Fc fusion protein (abatacept) (human), sequence (chain, as listed by the source limits assumed): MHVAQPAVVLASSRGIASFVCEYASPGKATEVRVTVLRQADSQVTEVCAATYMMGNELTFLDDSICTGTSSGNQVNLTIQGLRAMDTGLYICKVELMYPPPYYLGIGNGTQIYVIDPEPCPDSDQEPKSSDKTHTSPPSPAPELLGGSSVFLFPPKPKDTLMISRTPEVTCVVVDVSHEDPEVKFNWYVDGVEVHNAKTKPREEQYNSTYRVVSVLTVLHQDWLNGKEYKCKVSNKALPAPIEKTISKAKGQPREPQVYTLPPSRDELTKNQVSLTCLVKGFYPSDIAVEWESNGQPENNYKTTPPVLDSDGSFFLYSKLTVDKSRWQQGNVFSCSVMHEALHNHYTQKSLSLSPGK

[13] = target: CTLA-4Fc mutant protein M10 (human (murine residues substituted)); assay: ELISA; binder 0 (blank) on coated target
[14] = target: CTLA-4Fc mutant protein M2 (human (murine residues substituted)); assay: ELISA; binder 0 (blank) on coated target
[15] = target: CTLA-4Fc mutant protein M3 (human (murine residues substituted)); assay: ELISA; binder 0 (blank) on coated target
[16] = target: CTLA-4Fc mutant protein M5 (human (murine residues substituted)); assay: ELISA; binder 0 (blank) on coated target
[17] = target: CTLA-4Fc mutant protein M7 (human (murine residues substituted)); assay: ELISA; binder 0 (blank) on coated target
[18] = target: CTLA-4Fc mutant protein M9 (human (murine residues substituted)); assay: ELISA; binder 0 (blank) on coated target
[19] = target: CTLA-4Fc mutant protein M1 (human (murine residues substituted)); assay: ELISA; binder 100 ng/ml on coated target
[20] = target: CTLA-4Fc mutant protein M10 (human (murine residues substituted)); assay: ELISA; binder 100 ng/ml on coated target
[21] = target: CTLA-4Fc mutant protein M11 (human (murine residues substituted)); assay: ELISA; binder 100 ng/ml on coated target
[22] = target: CTLA-4Fc mutant protein M2 (human (murine residues substituted)); assay: ELISA; binder 100 ng/ml on coated target
[23] = target: CTLA-4Fc mutant protein M3 (human (murine residues substituted)); assay: ELISA; binder 100 ng/ml on coated target
[24] = target: CTLA-4Fc mutant protein M4 (human (murine residues substituted)); assay: ELISA; binder 100 ng/ml on coated target
[25] = target: CTLA-4Fc mutant protein M5 (human (murine residues substituted)); assay: ELISA; binder 100 ng/ml on coated target
[26] = target: CTLA-4Fc mutant protein M6 (human (murine residues substituted)); assay: ELISA; binder 100 ng/ml on coated target
[27] = target: CTLA-4Fc mutant protein M7 (human (murine residues substituted)); assay: ELISA; binder 100 ng/ml on coated target
[28] = target: CTLA-4Fc mutant protein M8 (human (murine residues substituted)); assay: ELISA; binder 100 ng/ml on coated target
[29] = target: CTLA-4Fc mutant protein M9 (human (murine residues substituted)); assay: ELISA; binder 100 ng/ml on coated target
[30] = target: wild type human CTLA-4Fc fusion protein (abatacept) (human); assay: ELISA; binder 100 ng/ml on coated target
[31] = target: CTLA-4Fc mutant protein M1 (human (murine residues substituted)); assay: ELISA; binder 0 (blank) on coated target
[32] = target: CTLA-4Fc mutant protein M10 (human (murine residues substituted)); assay: ELISA; binder 0 (blank) on coated target; remark: listed apart in the source
[33] = target: CTLA-4Fc mutant protein M11 (human (murine residues substituted)); assay: ELISA; binder 0 (blank) on coated target
[34] = target: CTLA-4Fc mutant protein M2 (human (murine residues substituted)); assay: ELISA; binder 0 (blank) on coated target; remark: listed apart in the source
[35] = target: CTLA-4Fc mutant protein M3 (human (murine residues substituted)); assay: ELISA; binder 0 (blank) on coated target; remark: listed apart in the source
[36] = target: CTLA-4Fc mutant protein M4 (human (murine residues substituted)); assay: ELISA; binder 0 (blank) on coated target
[37] = target: CTLA-4Fc mutant protein M5 (human (murine residues substituted)); assay: ELISA; binder 0 (blank) on coated target; remark: listed apart in the source
[38] = target: CTLA-4Fc mutant protein M6 (human (murine residues substituted)); assay: ELISA; binder 0 (blank) on coated target
[39] = target: CTLA-4Fc mutant protein M7 (human (murine residues substituted)); assay: ELISA; binder 0 (blank) on coated target; remark: listed apart in the source
[40] = target: CTLA-4Fc mutant protein M8 (human (murine residues substituted)); assay: ELISA; binder 0 (blank) on coated target
[41] = target: CTLA-4Fc mutant protein M9 (human (murine residues substituted)); assay: ELISA; binder 0 (blank) on coated target; remark: listed apart in the source
[42] = target: human IgG1-Fc control (human) [IgG part: P01857]; assay: ELISA; binder 0 (blank) on coated target
mouse CTLA-4-Fc (mouse) = mouse CTLA-4-Fc (mouse) (UniProt P09793); assay: ELISA; binder 0 (blank) on coated target
mouse CTLA-4-Fc (mouse), sequence (P09793 36-161 limits assumed): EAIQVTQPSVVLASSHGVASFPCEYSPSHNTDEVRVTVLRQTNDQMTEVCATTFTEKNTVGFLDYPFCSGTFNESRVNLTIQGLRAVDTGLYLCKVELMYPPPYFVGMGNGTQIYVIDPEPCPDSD

[43] = target: wild type human CTLA-4Fc fusion protein (abatacept) (human); assay: ELISA; binder 0 (blank) on coated target

CTLA-4Fc mutant protein M10 (human (murine residues substituted)), sequence (chain, as listed by the source mutant): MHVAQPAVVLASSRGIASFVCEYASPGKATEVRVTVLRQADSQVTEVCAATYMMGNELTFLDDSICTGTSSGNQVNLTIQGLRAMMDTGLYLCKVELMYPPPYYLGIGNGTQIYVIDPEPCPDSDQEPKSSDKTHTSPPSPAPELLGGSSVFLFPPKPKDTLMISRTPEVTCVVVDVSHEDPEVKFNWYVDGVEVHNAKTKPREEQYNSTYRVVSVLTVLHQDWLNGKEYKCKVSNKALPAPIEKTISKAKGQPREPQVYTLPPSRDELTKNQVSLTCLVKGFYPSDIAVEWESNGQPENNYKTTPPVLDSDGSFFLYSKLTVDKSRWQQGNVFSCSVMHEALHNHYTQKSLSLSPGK
CTLA-4Fc mutant protein M1 (human (murine residues substituted)), sequence (chain, as listed by the source mutant): as the sequence (chain, as listed by the source limits assumed) above, with M1I, H2Q, A4T, A7S counted along it

OD450 [1]: 2.47 OD450 and 2.43 OD450
OD450 [2]: 0.18 OD450 and 0.169 OD450
OD450 [3]: 0.202 OD450 and 0.203 OD450
OD450 [4]: 0.375 OD450 and 0.317 OD450
OD450 [5]: 0.62 OD450 and 0.587 OD450
OD450 [6]: 0.507 OD450 and 0.356 OD450
OD450 [7]: 1.54 OD450 and 1.37 OD450
OD450 [8]: 1.03 OD450 and 0.976 OD450
OD450 [9]: 0.714 OD450 and 0.738 OD450
OD450 [10]: 1.23 OD450 and 1.24 OD450
OD450 [11]: 0.18 OD450 and 0.171 OD450
OD450 [12]: 1.43 OD450 and 1.52 OD450
OD450 [13]: 0.179 OD450 and 0.166 OD450
OD450 [14]: 0.2 OD450 and 0.185 OD450
OD450 [15]: 0.187 OD450 and 0.18 OD450
OD450 [16]: 0.189 OD450 and 0.176 OD450
OD450 [17]: 0.198 OD450 and 0.176 OD450
OD450 [18]: 0.179 OD450 and 0.166 OD450
OD450 [19]: 3.25 OD450 and 3.24 OD450
OD450 [20]: 0.215 OD450 and 0.216 OD450
OD450 [21]: 0.635 OD450 and 0.759 OD450
OD450 [22]: 1.38 OD450 and 1.16 OD450
OD450 [23]: 2.32 OD450 and 2.35 OD450
OD450 [24]: 2.14 OD450 and 1.41 OD450
OD450 [25]: 2.84 OD450 and 2.99 OD450
OD450 [26]: 2.7 OD450 and 2.77 OD450
OD450 [27]: 2.5 OD450 and 2.48 OD450
OD450 [28]: 2.91 OD450 and 2.84 OD450
OD450 [29]: 0.295 OD450 and 0.304 OD450
OD450 [30]: 3.05 OD450 and 3.02 OD450
OD450 [31]: 0.222 OD450
OD450 [32]: 0.215 OD450 and 0.114 OD450
OD450 [33]: 0.171 OD450 and 0.155 OD450
OD450 [34]: 0.377 OD450 and 0.538 OD450
OD450 [35]: 0.183 OD450 and 0.167 OD450
OD450 [36]: 0.22 OD450 and 0.18 OD450
OD450 [37]: 0.177 OD450 and 0.229 OD450
OD450 [38]: 0.183 OD450 and 0.177 OD450
OD450 [39]: 0.186 OD450 and 0.142 OD450
OD450 [40]: 0.368 OD450 and 0.217 OD450
OD450 [41]: 0.15 OD450 and 0.293 OD450
OD450 [42]: 0.198 OD450 and 0.184 OD450
OD450 (mouse CTLA-4-Fc (mouse)): 0.19 OD450 and 0.189 OD450
OD450 [43]: 0.18 OD450 and 0.177 OD450
Substance: chimeric L3D10 anti-human CTLA-4 antibody
